From patent publication US11033621B2, “Combination therapies targeting tumor-associated stroma or tumor cells” (BIOMED VALLEY DISCOVERIES, INC., priority 2014, dated 2021)

Test system: H460 cells
Assay: H460 non-small cell lung carcinoma xenograft model
Format: in vivo, athymic nude mice
Conditions: combination partner Paclitaxel, Day 21
Procedure: Animals were monitored for regression responses.
The statistical tests were not adjusted for multiple comparisons.
Cultured H460 cells were harvested during exponential growth and resuspended in phosphate buffered saline at a concentration of 1×10^8 cells/mL. 1.0×10^7 tumor cells were injected subcutaneously into the flank of athymic nude mice. Animals were euthanized when tumors reached the pre-determined volume endpoint of 2000 mm^3 or on the final day (Day 88), whichever came first.

B1: M830: TEM8 monoclonal antibody (hIgG1), VH SEQ ID NO:5, VL SEQ ID NO:6; Fab in Table 6 (antibody, V domains shown)
VH: EVQLVESGGGVVQPGRSVRLSCAASGFTFSTYTMHWVRQAPGKGLEWVAIISNDGSNKYYADPVRGRFTISRDNSKNTLYLQMNSLRAEDTAVYYCVRGSSWYRGNWFDPWGQGTLVTVSS
VL: DIQMTQSPSSLSASVGDRVTIACRASQTISRYLNWYQQKPGKAPKLLIYAASSLQSGVSSRFSGSGSGTEFTLTISSLQPEDFATYFCQQTYSPPITFGQGTRLEIKR
modifications: TEM830 mAb VH; TEM830 mAb VL
In the case of B1, the regression is reported as “(−61%”.
